Ends that are not written are not given here.
Key:
[1] = target: T1, human Neuropeptide Y Receptor Y2 (Homo sapiens, UniProt P49146); experiment: In vitro receptor potency: inhibition of forskolin-stimulated cAMP in hY2 CHO-K1 cells; type: cell-based; conditions: for Average ratio to PYY2-36 ± SEM: ratio of example compound EC50 to PYY2-36 EC50, cAMP, hY2 CHO-K1 cells (DiscoverX), 0.02 mM forskolin, 30 minutes
T1 construct: host or cells: CHO-K1
T1 sequence (P49146 1-381): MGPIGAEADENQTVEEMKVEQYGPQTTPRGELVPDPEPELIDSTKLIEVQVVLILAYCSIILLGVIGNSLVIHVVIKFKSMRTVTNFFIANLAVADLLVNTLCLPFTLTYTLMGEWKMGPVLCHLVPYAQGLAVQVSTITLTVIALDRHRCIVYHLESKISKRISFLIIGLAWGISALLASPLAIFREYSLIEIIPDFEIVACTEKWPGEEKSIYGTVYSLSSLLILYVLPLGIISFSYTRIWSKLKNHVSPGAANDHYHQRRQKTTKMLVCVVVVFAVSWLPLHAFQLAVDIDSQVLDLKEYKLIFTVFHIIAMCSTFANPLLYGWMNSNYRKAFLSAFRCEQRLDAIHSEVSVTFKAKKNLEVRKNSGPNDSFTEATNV
Procedure: (§1) DiscoverX® hY2 CHO-K1 cells (10,000 cells per well (96 well plate)) were resuspended in media containing 0.2 mM IBMX and 0.02 mM forskolin (which stimulates cAMP production) and test peptides at a range of concentrations, for 30 minutes. The reaction stopped by lysing the cells and cAMP quantified 60 minutes later using Cisbio cAMP dynamic 2 kit.
as §1, with “Ten thousand” for “DiscoverX® hY2 CHO-K1 cells (10,000”, “plate)” for “plate))”

[2] = tested on: overnight fasted male Wistar rats; experiment: Rat feeding experiment, single subcutaneous injection, food intake and body weight monitored for 6 days; type: in vivo; conditions: single subcutaneous injection of peptide in saline vs control saline; monitored for following 6 days; FIGS. 3A-3D, 4A-4D
From the text: Animals were randomised into treatment groups, with stratification by body weight.

Row | Substance | ability to inhibit forskolin production (potency compared with Y242) ([1]; hY2 CHO-K1 cells, compared with previous generation compound Y242, FIG. 2) | Average ratio to PYY2-36 ± SEM [1] | reductions in food intake and body weight [2]
1 | Pro-Ile-Lys-Pro-Glu-Ala-Pro-Gly-Glu-Gly-Ala-Ser-Pro-Glu-Glu-Leu-Leu-His-Tyr-Tyr-Ala-Ala-Leu-Arg-His-Phe-Leu-Asn-His-Val-Thr-Arg-Gln-Arg-Tyr-NH2 (PIKPEAPGEGASPEELLHYYAALRHFLNHVTRQRY-NH2) [Peptide Y1419] | much more potent inhibitor than the previous generation of preferred compounds | 0.8 ± 0.16 | a single initial dose is still active at 160 hours after administration
2 | Y1421: example PYY analogue peptide; sequence given in FIGS. 1A-1D (PIKPEAPGQGASPEELLHYYAALRHFLNHVTRQRY-NH2) [Peptide Y1421] |  | 0.9 ± 0.09 | 
3 | Y1518: example PYY analogue peptide; sequence given in FIGS. 1A-1D (PIKPEAPGEGASPEELLHYYAALRHFLNHLTRQRY-NH2) [Peptide Y1518] |  | 1.7 ± 0.13 | 

From patent US12617830B2, “Analogues of PYY” (IP2IPO Innovations Limited, priority 2017, dated 2026)
